The target of test [1] is T1, cSNK:BSA conjugate (bovine, head-to-tail cyclized; conjugated to BSA carrier).
T1 construct: also called BSA-cSNK
The test can be described thus: BLI (Octet), KD1. For orientation: BLI is a label-free optical method that tracks binding on a fibre tip over time.

The target of test [2] is T1, cSNK:BSA conjugate. Briefly: BLI (Octet), KD2.
The target of test [3] is T1, cSNK:BSA conjugate. The test can be described thus: BLI (Octet), 1:1 model, BSA-cSNK. The procedure: Biolayer interferometry (Octet Red92, ForteBio) was used to qualitatively/quantitatively assess the interactions between humanized 5E3 and Δ5E3 mAbs to the cSNK:BSA conjugate. […] MAbs were loaded onto sensors and then washed in PBST. Each sensor was associated with one of several cSNK:BSA standards (100 nM to 0 nM) and then washed in PBST. Data was processed statistically using ForteBio Data Analysis software to determine the strength of antigen-antibody binding (KD). For each mAb analyzed, a 1:1 model provided the “best fit”.

Test [4] addresses T1, cSNK:BSA conjugate. The test can be described thus: BLI (Octet), compared to hu5E3.

T1 sequence (P02769 25-607 limits assumed): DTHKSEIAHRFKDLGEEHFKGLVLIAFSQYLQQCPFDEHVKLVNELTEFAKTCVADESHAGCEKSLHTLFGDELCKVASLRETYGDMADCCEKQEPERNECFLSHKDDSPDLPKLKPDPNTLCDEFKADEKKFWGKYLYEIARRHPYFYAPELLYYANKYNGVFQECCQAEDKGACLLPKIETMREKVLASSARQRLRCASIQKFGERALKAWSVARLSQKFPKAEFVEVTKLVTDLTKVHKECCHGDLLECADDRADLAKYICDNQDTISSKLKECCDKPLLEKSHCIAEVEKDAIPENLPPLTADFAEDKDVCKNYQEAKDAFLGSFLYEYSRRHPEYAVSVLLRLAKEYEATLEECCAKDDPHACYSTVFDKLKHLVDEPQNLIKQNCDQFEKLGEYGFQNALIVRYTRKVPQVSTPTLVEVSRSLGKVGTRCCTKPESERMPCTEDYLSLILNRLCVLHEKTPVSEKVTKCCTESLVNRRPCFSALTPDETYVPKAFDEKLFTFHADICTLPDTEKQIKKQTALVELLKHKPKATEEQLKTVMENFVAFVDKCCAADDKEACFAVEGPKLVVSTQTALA

B1: 5E3KCDR3-A116Y (antibody, IgG1, V domains shown)
VH: QVQLQQSGPEVKKPGASVKISCKASGYIFTSYYIQWVIHAPGQGLEWIGWIYPGNVNTKYNEKFKGKATLTADKSSSTAYMELSSLTSEDTAVYFCARMDYEAHYWGQGTTVTVSS
VL: DIQMTQSPSSLSASVGDRVTITCRASQEISGYLTWLQQKPEGAIKRLIYAASTLDSGVPKRFSGSRSGSDYSLTISSLQPEDFATYNCLQYYNYPRTFGGGTKLEIK
notes: hu5E3 IgG1 vector mutant
One may read the Kd as the concentration at which binding is half-saturated. Low readings indicate higher affinity, high ones lower affinity. With B1, the dissociation constant (Kd) is less than 0.001 nM in test [1] and 1.93 nM in test [2].

B2: 5E3KCDR3-N93D (antibody, IgG1, V domains shown)
VH: QVQLQQSGPEVKKPGASVKISCKASGYIFTSYYIQWVIHAPGQGLEWIGWIYPGNVNTKYNEKFKGKATLTADKSSSTAYMELSSLTSEDTAVYFCARMDYEAHYWGQGTTVTVSS
VL: DIQMTQSPSSLSASVGDRVTITCRASQEISGYLTWLQQKPEGAIKRLIYAASTLDSGVPKRFSGSRSGSDYSLTISSLQPEDFATYNCLQYADYPRTFGGGTKLEIK
notes: hu5E3 IgG1 vector mutant; same change as 5E3KCDR3-N117D
For the molecule B2, the Kd in test [1] came out at 4.25 nM; in test [2], 9.9 nM.

B3: 5E3KCDR3-N93D + 5E3HCDR3-Y212F (antibody, IgG1, V domains shown)
VH: QVQLQQSGPEVKKPGASVKISCKASGYIFTSYYIQWVIHAPGQGLEWIGWIYPGNVNTKYNEKFKGKATLTADKSSSTAYMELSSLTSEDTAVYFCARMDYEAHFWGQGTTVTVSS
VL: DIQMTQSPSSLSASVGDRVTITCRASQEISGYLTWLQQKPEGAIKRLIYAASTLDSGVPKRFSGSRSGSDYSLTISSLQPEDFATYNCLQYADYPRTFGGGTKLEIK
notes: double combination in hu5E3 IgG1
For B3, the results for the Kd in test [1] and in test [2] were 0.0194 nM and 2.41 nM, respectively.

B4: 5E3KCDR3-N93Q (antibody, IgG1, V domains shown)
VH: QVQLQQSGPEVKKPGASVKISCKASGYIFTSYYIQWVIHAPGQGLEWIGWIYPGNVNTKYNEKFKGKATLTADKSSSTAYMELSSLTSEDTAVYFCARMDYEAHYWGQGTTVTVSS
VL: DIQMTQSPSSLSASVGDRVTITCRASQEISGYLTWLQQKPEGAIKRLIYAASTLDSGVPKRFSGSRSGSDYSLTISSLQPEDFATYNCLQYAQYPRTFGGGTKLEIK
notes: hu5E3 IgG1 vector mutant
Regarding B4, the Kd worked out at 9.12 nM in test [1] and 0.76 nM in test [2].

B5: HuΔ5E3-IgG1 (KHA) (antibody, V domains shown)
VH: QVQLQQSGPEVKKPGASVKISCKASGYIFTSYYIQWVKHAPGQGLEWIGWIYPGNVNTKYNEKFKGKATLTADKSSSTAYMELSSLTSEDTAVYFCARMDYEAHYWGQGTTVTVSS
VL: DIQMTQSPSSLSASVGDRVTITCRASQEISGYLTWLQQKPEGAIKRLIYAASTLDSGVPKRFSGSRSGSDYSLTISSLQPEDFATYNCLQYANYPRTFGGGTKLEIK
notes: human IgG1; also called huΔ5E3 KHA Mutation
Turning to B5, in test [3], binding was put at a Kd of 1.52 nM.

B6: HuΔ5E3-IgG1 (IQR) (antibody, V domains shown)
VH: QVQLQQSGPEVKKPGASVKISCKASGYIFTSYYIQWVIQRPGQGLEWIGWIYPGNVNTKYNEKFKGKATLTADKSSSTAYMELSSLTSEDTAVYFCARMDYEAHYWGQGTTVTVSS
VL: DIQMTQSPSSLSASVGDRVTITCRASQEISGYLTWLQQKPEGAIKRLIYAASTLDSGVPKRFSGSRSGSDYSLTISSLQPEDFATYNCLQYANYPRTFGGGTKLEIK
notes: human IgG1; also called huΔ5E3 IQR Mutation
Consider B6, for which, in test [3], the Kd turned out to be 1.26 nM. This Kd and that of the molecule before are within 1.5-fold of each other.

B7: HuΔ5E3-IgG1 (IHR) (antibody, V domains shown)
VH: QVQLQQSGPEVKKPGASVKISCKASGYIFTSYYIQWVIHRPGQGLEWIGWIYPGNVNTKYNEKFKGKATLTADKSSSTAYMELSSLTSEDTAVYFCARMDYEAHYWGQGTTVTVSS
VL: DIQMTQSPSSLSASVGDRVTITCRASQEISGYLTWLQQKPEGAIKRLIYAASTLDSGVPKRFSGSRSGSDYSLTISSLQPEDFATYNCLQYANYPRTFGGGTKLEIK
notes: human IgG1; also called huΔ5E3 IHR Mutation
Consider B7, for which the Kd in test [3] came to 1.43 nM.

B8: HuΔ5E3-IgG4 (KQR) (antibody, V domains shown)
VH: QVQLQQSGPEVKKPGASVKISCKASGYIFTSYYIQWVKQRPGQGLEWIGWIYPGNVNTKYNEKFKGKATLTADKSSSTAYMELSSLTSEDTAVYFCARMDYEAHYWGQGTTVTVSS
VL: DIQMTQSPSSLSASVGDRVTITCRASQEISGYLTWLQQKPEGAIKRLIYAASTLDSGVPKRFSGSRSGSDYSLTISSLQPEDFATYNCLQYANYPRTFGGGTKLEIK
notes: KQR framework 2 variant of hu5E3 on human IgG4
In turn, B8 had a dissociation constant (Kd) in test [3] of 1.04 nM.

B9: 5E3KCDR3-Y94F (antibody, IgG1, V domains shown)
VH: QVQLQQSGPEVKKPGASVKISCKASGYIFTSYYIQWVIHAPGQGLEWIGWIYPGNVNTKYNEKFKGKATLTADKSSSTAYMELSSLTSEDTAVYFCARMDYEAHYWGQGTTVTVSS
VL: DIQMTQSPSSLSASVGDRVTITCRASQEISGYLTWLQQKPEGAIKRLIYAASTLDSGVPKRFSGSRSGSDYSLTISSLQPEDFATYNCLQYANFPRTFGGGTKLEIK
notes: hu5E3 IgG1 vector mutant
For the molecule B9, the binding result in test [4] is recorded as “no binding (tested: 100 nM)”.

B10: HuΔ5E3-IgG1 (KQR) (antibody, V domains shown)
VH: QVQLQQSGPEVKKPGASVKISCKASGYIFTSYYIQWVKQRPGQGLEWIGWIYPGNVNTKYNEKFKGKATLTADKSSSTAYMELSSLTSEDTAVYFCARMDYEAHYWGQGTTVTVSS
VL: DIQMTQSPSSLSASVGDRVTITCRASQEISGYLTWLQQKPEGAIKRLIYAASTLDSGVPKRFSGSRSGSDYSLTISSLQPEDFATYNCLQYANYPRTFGGGTKLEIK
notes: human IgG1; also called hu5E3 IgG1 KQR; huΔ5E3 KQR Mutation
The molecule B10 had a Kd in test [3] of 1.88 nM.

B11: HuΔ5E3-IgG1 (KQA) (antibody, V domains shown)
VH: QVQLQQSGPEVKKPGASVKISCKASGYIFTSYYIQWVKQAPGQGLEWIGWIYPGNVNTKYNEKFKGKATLTADKSSSTAYMELSSLTSEDTAVYFCARMDYEAHYWGQGTTVTVSS
VL: DIQMTQSPSSLSASVGDRVTITCRASQEISGYLTWLQQKPEGAIKRLIYAASTLDSGVPKRFSGSRSGSDYSLTISSLQPEDFATYNCLQYANYPRTFGGGTKLEIK
notes: human IgG1; also called huΔ5E3 KQA Mutation
In test [3], B11 yielded a Kd of 1.28 nM.

B12: 5E3KCDR3-Y91F (antibody, IgG1, V domains shown)
VH: QVQLQQSGPEVKKPGASVKISCKASGYIFTSYYIQWVIHAPGQGLEWIGWIYPGNVNTKYNEKFKGKATLTADKSSSTAYMELSSLTSEDTAVYFCARMDYEAHYWGQGTTVTVSS
VL: DIQMTQSPSSLSASVGDRVTITCRASQEISGYLTWLQQKPEGAIKRLIYAASTLDSGVPKRFSGSRSGSDYSLTISSLQPEDFATYNCLQFANYPRTFGGGTKLEIK
notes: hu5E3 IgG1 vector mutant
As for B12, in test [4], the binding result was “no binding (tested: 100 nM)”.

B13: 5E3KCDR3-N93Q + 5E3HCDR3-Y212F (antibody, IgG1, V domains shown)
VH: QVQLQQSGPEVKKPGASVKISCKASGYIFTSYYIQWVIHAPGQGLEWIGWIYPGNVNTKYNEKFKGKATLTADKSSSTAYMELSSLTSEDTAVYFCARMDYEAHFWGQGTTVTVSS
VL: DIQMTQSPSSLSASVGDRVTITCRASQEISGYLTWLQQKPEGAIKRLIYAASTLDSGVPKRFSGSRSGSDYSLTISSLQPEDFATYNCLQYAQYPRTFGGGTKLEIK
notes: as for B3
B13: the values for the Kd in test [1] and in test [2] were 0.0201 nM and 2.8 nM, respectively.

B14: HuΔ5E3-IgG2 (KQR) (antibody, V domains shown)
VH: QVQLQQSGPEVKKPGASVKISCKASGYIFTSYYIQWVKQRPGQGLEWIGWIYPGNVNTKYNEKFKGKATLTADKSSSTAYMELSSLTSEDTAVYFCARMDYEAHYWGQGTTVTVSS
VL: DIQMTQSPSSLSASVGDRVTITCRASQEISGYLTWLQQKPEGAIKRLIYAASTLDSGVPKRFSGSRSGSDYSLTISSLQPEDFATYNCLQYANYPRTFGGGTKLEIK
notes: KQR framework 2 variant of hu5E3 on human IgG2
In turn, B14 gave a Kd in test [3] of 0.226 nM.

B15: 5E3KCDR3-L89I (antibody, IgG1, V domains shown)
VH: QVQLQQSGPEVKKPGASVKISCKASGYIFTSYYIQWVIHAPGQGLEWIGWIYPGNVNTKYNEKFKGKATLTADKSSSTAYMELSSLTSEDTAVYFCARMDYEAHYWGQGTTVTVSS
VL: DIQMTQSPSSLSASVGDRVTITCRASQEISGYLTWLQQKPEGAIKRLIYAASTLDSGVPKRFSGSRSGSDYSLTISSLQPEDFATYNCIQYANYPRTFGGGTKLEIK
notes: hu5E3 IgG1 vector mutant
Take B15: the Kd was found to be 1.62 nM in test [1] and 17.4 nM in test [2].

B16: 5E3KCDR3-L89I + 5E3HCDR3-Y212F (antibody, IgG1, V domains shown)
VH: QVQLQQSGPEVKKPGASVKISCKASGYIFTSYYIQWVIHAPGQGLEWIGWIYPGNVNTKYNEKFKGKATLTADKSSSTAYMELSSLTSEDTAVYFCARMDYEAHFWGQGTTVTVSS
VL: DIQMTQSPSSLSASVGDRVTITCRASQEISGYLTWLQQKPEGAIKRLIYAASTLDSGVPKRFSGSRSGSDYSLTISSLQPEDFATYNCIQYANYPRTFGGGTKLEIK
notes: as for B3
B16: the equilibrium dissociation constant (Kd) in test [1] was found to be 0.021 nM; in test [2], 4.2 nM.

These data come from patent US20170008955A1 (CNJ, published 2017).
